Three substances from US20130004947A1, “LUCIFERASE-LINKED ANALYSIS OF DNA-METHYLTRANSFERASE, PROTEIN METHYLTRANSFERASE AND S-ADENOSYLHOMOCYSTEINE AND USES THEREOF” (priority 2010, published 2013) can be followed below.

What all share (type): biochemical
Series [1] concerns AdoMet and poly(dIdC). Put plainly: continuous luciferase-linked AdoHcy assay of DNMT kinetics. To be noted: for activity of catalytic domain alone (initial reaction rates): without DNMT3L, even at high substrate and enzyme concentrations. Here is the method:
AdoHcy to ATP Conversion Buffer. The 2×AdoHcy to ATP conversion buffer was prepared as previously described with minor modifications (17). In brief, 100 mL of buffer contained 100 mM Tris-acetate pH 7.7, 2 mM PEP, 2 mM sodium pyrophosphate, 2 mM PRPP, 15 mM (NH4)2SO4, 15 mM (NH4)2MoO4, and phosphatase inhibitors (Roche PhosSTOP, 10 tablets). A 4:1 cellulose:charcoal mixture was suspended in water and packed into a disposable mini-column to a bed volume of 1.5 mL, through which a 10 mL aliquot of the previously prepared buffer was passed at 2 mL/min to remove traces of adenine, AMP, and ATP. Treated buffer was filtered (0.2 μm) and stored in 1 mL aliquots at −80° C. Immediately prior to use, the 2× conversion buffer was completed by additions to give final concentrations of 10 mM MgSO4, 6 U APRTase, 18 U PPDK, and 250 nM MTAN and an increase in volume of 14 μL.
DNMT Kinetics using Continuous Luciferase Assay. Continuous assay buffer (2×) was prepared by adding 200 μl luciferin/luciferase (ATPlite) to 1 mL of the AdoHcy to ATP conversion buffer and warmed to room temperature. To 25 μL of this mixture was added AdoMet and the DNA substrate in DNMT assay buffer (25 mM HEPES pH 7.6, 50 mM KCl, 5% glycerol, 0.1% DTT) in a 96-well non-binding surface microplate. The mixture was incubated at room temperature for 3 min to permit any contaminating adenine, AMP, ATP or 5′-methylthioadenosine (MTA) to be converted to a stable background light signal as measured in the kinetic acquisition mode of the luminometer for 3 min. DNMT was added to give a final volume of 50 μL. After 3 min, the luminescent signal was measured for the following 3 min. […] Initial rates were calculated by subtracting the background rate from that obtained after DNMT addition. Initial rates were fitted to the Morrison equation for tight binding substrates with the exception of data obtained while using M.SssI CpG methyltransferase which were fit to the Michaelis-Menten equation. The Morrison equation was used as high enzyme concentrations were necessary and it could no longer be assumed that free substrate concentration was equal to total substrate concentration. The kinetic parameters Km and Vmax were obtained from these fits after converting the luminescent rate (RLU/s) to an enzymatic rate (pmol AdoHcy/h) using the AdoHcy standard curve. The AdoHcy standard curve was constructed by mixing 25 μL of DNMT assay buffer containing varied concentrations of AdoHcy with 25 μL of continuous assay buffer, incubating for several minutes, and then measuring the luminescence of each sample in the discontinuous acquisition mode of the luminometer. Values were background corrected using a mixture containing no AdoHcy.

Series [2] relates to [methyl-3H]AdoMet and poly(dIdC). Put plainly: radiometric filter paper assay of DNMT1 rate. The note with it: 258 nM DNMT1, 672 nM [methyl-3H]AdoMet. Here is the method: DNMT1 Rate Measurement using Radiometric Assay. The same two reactions were prepared as above for the discontinuous luciferase assay with the exception that 672 nM S-adenosyl-1-[methyl-^3H]methionine was used in place of non-radioactive AdoMet. 15 μL aliquots were removed from each reaction in triplicate at 2 min intervals from 2 to 8 min and spotted on 2.3 cm diameter Whatman DE81 filter paper circles which were allowed to dry for 30 min. The circles were washed with 0.2 M NH4HCO3 (4×2 mL), water (4×2 mL), and absolute ethanol (1×2 mL); each wash lasted 5 min before decanting the liquid. Circles were then dried for 1 h, then placed in scintillation vials and covered with 10 mL Betaplate Scint scintillation fluid. Radioactivity was measured on a Tricarb scintillation counter and background was corrected with a no-enzyme control. A conversion factor of 12 CPM/fmol was used.
Parallel reactions were performed with 672 nM [methyl-^3H]AdoMet to compare the initial rates from the luciferase assay with those obtained from the radiometric filter paper assay (4, 5). Reactions were limited to approximately 700 nM AdoMet because of the concentration of the [methyl/-^3H]AdoMet stock solution. The luciferase-linked assays were performed at the same AdoMet concentration. […] The dried circles were analyzed for radioactivity in a scintillation counter. […]

Series [3] deals with AdoMet and poly(dIdC). In words: discontinuous luciferase-linked AdoHcy assay of DNMT1 rate. The note with it: 258 nM DNMT1, 682 nM AdoMet. Here is the method: DNMT1 Rate Measurement using Discontinuous Luciferase Assay. DNMT1 was added to a solution of 682 nM AdoMet and 1 μg poly(dIdC) in DNMT assay buffer to a concentration of 258 nM in 300 μL total volume which had been equilibrated to 22° C. or 37° C. A control reaction containing no DNMT1 was also performed at 37° C. 15 μL aliquots of the reaction were quenched with 5 μL of 100 mM HCl at 2 min intervals from 2 to 10 min in triplicate. These were neutralized with 5 μL of 100 mM KOH and were mixed with 25 μL of 2×AdoHcy to ATP conversion buffer and incubated at room temperature for several minutes. 20 μL of each mixture were then mixed with 80 μL of ATPlite in a 96-well non-binding surface microplate. These mixtures were incubated at room temperature for several minutes and their luminescence was measured in the single measurement mode of the luminometer. […]
Initial reaction rates for human DNMT1 were measured both at room temperature and at 37° C. […] After incubation at room temperature for ˜3 min, the luminescence of each sample was measured and an initial rate plot was constructed (FIG. 5A). Initial rates measured in RLU/s were converted to units of pmol/h with an AdoHcy standard curve constructed under the same assay conditions (Table 2). […] The discontinuous rates were readily measured even at low AdoMet concentrations, and the assay is suitable for automated screening. […]

Several values for one entry are separate records, joined by “and”; a condition that tells them apart may be missing. Equal values may be shown once. Read-outs that look alike come from different tables or passages of the source.

Consider “CD-DNMT3a: 286 amino acid C-terminal catalytic domain of human DNMT3a (residues 627-912), His6 tagged”, for which, in the series on AdoMet and poly(dIdC) [1], the “activity of catalytic domain alone (initial reaction rates)” value is given as “low activity”.
On the same count and under the same terms, the result for “CD-DNMT3b: 286 amino acid C-terminal catalytic domain of human DNMT3b (residues 568-853), His6 tagged” reads “low activity”.
The term Vmax denotes the top rate of the reaction or transport when substrate is in excess. A word on the kcat: it is the maximal rate divided by the concentration of active sites. Usually Km stands for the substrate concentration at which the rate is half of its maximum. As for “DNMT1: full-length human DNA (cytosine 5)-methyltransferase 1, N-terminal His6 tag, expressed in SF9 cells”, the Initial rate is 11.6 pmol/h in series [2] (22° C.); 13.0 pmol/h in series [2] (37° C.); 30 pmol/h and 30.1 pmol/h with AdoMet and poly(dIdC) [1] (continuous assay, 258 nM DNMT1, 682 nM AdoMet, 1 μg poly(dIdC) per 50 μL); 6.3 pmol/h and 6.26 pmol/h in the series on AdoMet and poly(dIdC) [3] (22° C. (room temperature)); 7.5 pmol/h and 7.52 pmol/h in the series with AdoMet and poly(dIdC) [3] (37° C.). The Vmax with AdoMet and poly(dIdC) [1] (room temperature) is 726 ± 75 pmol/h. In addition, the turnover number (kcat) in the series on AdoMet and poly(dIdC) [1] (room temperature) is 0.00778 ± 0.00083 s⁻¹ and 0.00781 s⁻¹. Also, the Km is 2.7 ± 0.7 µM in the series with AdoMet and poly(dIdC) [1] (room temperature, 1 μg poly(dIdC), value as printed in the text, read-out: Km for AdoMet); 0.84 µM and 0.837 µM in the series with AdoMet and poly(dIdC) [1] (room temperature, near saturating AdoMet: 35 μM for DNMT1, 10 μM for CD-DNMT3a/3b complexes with DNMT3L, read-out: Km DNA (poly(dIdC))); 2.66 ± 0.75 µM in the series on AdoMet and poly(dIdC) [1] (room temperature, near saturating poly(dIdC), dIdC base pair concentration 16.4 μM, read-out: Km AdoMet).
